According to US20130123471A1:

Legend:
[1] = molecular target: anti-CEA humanized chimeric antibody; assay: direct ELISA: chimeric antibody (100 ng/ml) on coated CEA, detected with goat-anti-mouse IgG Fc-HRP (background level)
[2] = molecular target: human CEA antigen (human) (UniProt P06731); assay: direct ELISA on coated CEA, 100 ng/ml, goat-anti-mouse IgG Fc-HRP secondary (background level; this secondary does not detect human Ig)
[3] = molecular target: human CEA antigen (human) (UniProt P06731); assay: competitive inhibition ELISA on coated CEA, 80 ng human IgG1 against 2.5 ng parent mouse antibody
[4] = molecular target: human CEA antigen (human) (UniProt P06731); assay: ELISA, CEA coating, sample 100 ng/ml, goat-anti-human IgG Fc-HRP (background level)
[5] = molecular target: human CEA antigen (human) (UniProt P06731); assay: direct ELISA on coated CEA, 100 ng/ml, goat-anti-human IgG Fc-HRP secondary (background level)

Chain of UniProt P06731 (P06731 35-685 limits assumed): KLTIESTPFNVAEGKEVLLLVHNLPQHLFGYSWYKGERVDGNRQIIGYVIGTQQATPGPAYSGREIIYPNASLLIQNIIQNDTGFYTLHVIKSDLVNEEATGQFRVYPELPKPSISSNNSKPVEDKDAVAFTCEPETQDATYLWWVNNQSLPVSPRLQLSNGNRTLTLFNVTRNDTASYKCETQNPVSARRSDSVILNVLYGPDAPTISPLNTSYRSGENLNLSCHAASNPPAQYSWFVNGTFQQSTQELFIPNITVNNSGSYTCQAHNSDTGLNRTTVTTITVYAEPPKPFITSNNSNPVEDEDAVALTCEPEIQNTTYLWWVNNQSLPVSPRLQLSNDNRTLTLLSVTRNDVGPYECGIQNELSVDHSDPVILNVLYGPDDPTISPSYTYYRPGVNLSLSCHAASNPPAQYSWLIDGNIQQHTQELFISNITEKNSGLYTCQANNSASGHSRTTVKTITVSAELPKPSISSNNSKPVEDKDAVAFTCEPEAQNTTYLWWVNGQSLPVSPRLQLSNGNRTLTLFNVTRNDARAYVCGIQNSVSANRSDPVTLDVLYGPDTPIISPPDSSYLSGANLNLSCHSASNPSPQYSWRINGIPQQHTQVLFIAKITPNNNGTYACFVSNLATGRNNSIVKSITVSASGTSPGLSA
Chain of anti-CEA humanized chimeric antibody (VH, as listed by the source, chain 1 of 2): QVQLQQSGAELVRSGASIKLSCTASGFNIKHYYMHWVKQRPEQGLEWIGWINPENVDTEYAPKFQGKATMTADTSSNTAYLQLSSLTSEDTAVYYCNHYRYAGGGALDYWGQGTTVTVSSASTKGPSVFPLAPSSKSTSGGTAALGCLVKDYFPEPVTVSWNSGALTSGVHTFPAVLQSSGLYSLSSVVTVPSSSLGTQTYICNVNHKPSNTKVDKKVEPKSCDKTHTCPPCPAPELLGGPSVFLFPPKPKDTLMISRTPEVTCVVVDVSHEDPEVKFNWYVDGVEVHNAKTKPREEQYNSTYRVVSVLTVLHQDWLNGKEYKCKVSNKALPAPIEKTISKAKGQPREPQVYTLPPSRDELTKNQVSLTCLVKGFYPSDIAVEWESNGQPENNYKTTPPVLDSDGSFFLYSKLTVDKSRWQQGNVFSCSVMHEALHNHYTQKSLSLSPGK
Chain of anti-CEA humanized chimeric antibody (VL, as listed by the source, chain 2 of 2): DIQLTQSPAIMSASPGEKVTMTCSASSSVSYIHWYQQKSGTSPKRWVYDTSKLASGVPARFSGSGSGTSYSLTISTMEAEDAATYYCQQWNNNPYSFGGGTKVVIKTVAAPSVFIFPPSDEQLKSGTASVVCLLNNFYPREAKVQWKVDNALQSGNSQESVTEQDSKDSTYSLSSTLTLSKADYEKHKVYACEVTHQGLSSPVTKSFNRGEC

Work on “goat-anti-mouse IgG Fc fragment-HRP (antibody)” yielded an OD490 [1] of 0.072 OD490.

With irrelevant antibody human IgG1 the OD490 [2] was 0.077 OD490, the Inhibition rate (%) [3] was -12.8% and the OD490 [4] was 0.072 OD490. It also gave an OD490 [5] of 0.079 OD490.
